Measurements reported in patent publication EP4711384A1 (WIO Bioscience Co., Ltd., dated 2026).
Several values for one entry are separate records, joined by “and”; a condition that tells them apart may be missing. Identical values can stand only once. Like-named read-outs stand apart in the source and are kept apart here.

T1: human IL-18R1 ECD-His (human) (UniProt Q13478)
T1 sequence: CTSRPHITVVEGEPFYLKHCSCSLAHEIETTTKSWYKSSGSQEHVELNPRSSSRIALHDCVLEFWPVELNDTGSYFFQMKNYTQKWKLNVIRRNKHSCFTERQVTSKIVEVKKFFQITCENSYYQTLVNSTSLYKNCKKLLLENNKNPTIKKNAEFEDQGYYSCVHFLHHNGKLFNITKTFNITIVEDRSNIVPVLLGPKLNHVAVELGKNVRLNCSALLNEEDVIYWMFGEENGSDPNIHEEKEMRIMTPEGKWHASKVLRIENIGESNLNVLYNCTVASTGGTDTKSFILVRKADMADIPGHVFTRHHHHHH

T2: human IL-18RAP ECD-His (human) (UniProt O95256)
T2 sequence: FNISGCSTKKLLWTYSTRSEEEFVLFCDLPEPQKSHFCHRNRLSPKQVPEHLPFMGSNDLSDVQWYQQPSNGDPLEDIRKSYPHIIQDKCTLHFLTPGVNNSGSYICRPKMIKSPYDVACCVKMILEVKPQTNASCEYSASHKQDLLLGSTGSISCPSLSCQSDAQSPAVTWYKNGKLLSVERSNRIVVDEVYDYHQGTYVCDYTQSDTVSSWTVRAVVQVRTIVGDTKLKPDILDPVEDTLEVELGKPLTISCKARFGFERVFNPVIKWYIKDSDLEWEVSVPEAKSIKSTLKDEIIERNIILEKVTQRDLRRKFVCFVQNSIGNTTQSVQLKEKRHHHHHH

T3: human IL-18R1 and IL-18RAP on IL-18 Reporter HEK 293 Cells (human, UniProt Q13478 19-541; O95256 20-599)
T3 sequence (looked up) 1: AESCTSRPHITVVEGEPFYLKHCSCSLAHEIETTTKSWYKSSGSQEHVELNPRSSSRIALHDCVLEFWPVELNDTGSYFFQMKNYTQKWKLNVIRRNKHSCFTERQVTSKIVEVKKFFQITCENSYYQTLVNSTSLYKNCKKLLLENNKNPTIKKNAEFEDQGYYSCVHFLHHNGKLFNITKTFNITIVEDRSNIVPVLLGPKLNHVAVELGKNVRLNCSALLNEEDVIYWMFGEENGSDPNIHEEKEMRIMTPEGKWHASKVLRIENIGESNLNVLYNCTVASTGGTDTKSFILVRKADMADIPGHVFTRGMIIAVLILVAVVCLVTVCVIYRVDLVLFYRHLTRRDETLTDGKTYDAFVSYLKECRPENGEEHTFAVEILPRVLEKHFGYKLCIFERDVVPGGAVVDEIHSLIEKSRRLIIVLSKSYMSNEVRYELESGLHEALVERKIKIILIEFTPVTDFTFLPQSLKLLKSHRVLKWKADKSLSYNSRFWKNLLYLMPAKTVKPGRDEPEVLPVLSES
T3 sequence (looked up) 2: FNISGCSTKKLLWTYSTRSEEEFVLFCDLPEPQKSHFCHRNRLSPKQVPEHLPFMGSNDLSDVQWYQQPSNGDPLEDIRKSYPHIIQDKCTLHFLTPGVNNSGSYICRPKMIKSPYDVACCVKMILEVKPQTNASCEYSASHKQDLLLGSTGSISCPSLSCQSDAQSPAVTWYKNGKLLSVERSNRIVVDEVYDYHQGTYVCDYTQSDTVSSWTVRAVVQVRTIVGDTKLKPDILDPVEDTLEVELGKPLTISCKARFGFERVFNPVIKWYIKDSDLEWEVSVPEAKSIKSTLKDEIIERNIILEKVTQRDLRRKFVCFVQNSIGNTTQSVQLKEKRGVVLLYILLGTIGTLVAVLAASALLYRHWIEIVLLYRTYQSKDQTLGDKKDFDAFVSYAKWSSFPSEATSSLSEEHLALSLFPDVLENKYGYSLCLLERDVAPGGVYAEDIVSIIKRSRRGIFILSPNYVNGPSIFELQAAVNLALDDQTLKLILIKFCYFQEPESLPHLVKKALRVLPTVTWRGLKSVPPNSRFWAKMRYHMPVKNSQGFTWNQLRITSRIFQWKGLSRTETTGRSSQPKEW


What was measured:
[1] = molecular target: human IL-18R1 and IL-18RAP on IL-18 Reporter HEK 293 Cells (human) (UniProt Q13478); assay: cell-based or functional assay
[2] = molecular target: human IL-18R1 and IL-18RAP on IL-18 Reporter HEK 293 Cells (human) (UniProt Q13478); assay: cell-based or functional assay; remark: listed apart in the source
[3] = molecular target: T1, human IL-18R1 ECD-His (human); assay: phage ELISA, 4-fold dilution
[4] = molecular target: T2, human IL-18RAP ECD-His (human); assay: phage ELISA, 4-fold dilution
[5] = molecular target: T1, human IL-18R1 ECD-His (human); assay: phage ELISA, 16-fold dilution
[6] = molecular target: T2, human IL-18RAP ECD-His (human); assay: phage ELISA, 16-fold dilution
[7] = molecular target: T3, human IL-18R1 and IL-18RAP on IL-18 …; assay: cell-based or functional assay
[8] = molecular target: T3, human IL-18R1 and IL-18RAP on IL-18 …; assay: cell-based or functional assay; remark: listed apart in the source
[9] = molecular target: T1, human IL-18R1 ECD-His (human); assay: sandwich ELISA, IL-18RAP ECD-hFc detection

Molecule | ELISA OD [3] | ELISA OD [4] | ELISA OD [5] | ELISA OD [6] | further results
recombinant human IL-18 (from UniProt Q14116 37-193) (ligand) |  |  |  |  | EC50 [1]: 0.117 ng/mL; EC50, SEAP reporter [1]: 0.107 ng/mL; Top630nm [1]: 2.44; EC50 [2]: 0.121 ng/mL; Top630nm [2]: 2.27
NC | 0.059 | 0.06 | 0.055 | 0.068 | 
R1-C7 (VHH) VHH: QVQLQESGGGPVQAEGSLRLSCTASGNLYRDPCMGWFRQAPGKDREGVAAMNTGADSTFYARSVKGRFTISHDNAKNTLYLQMNSVKPEDTAMYYCAASRYCTERTWTWRYDYDYWGQGTQVTVSS | 1 |  | 0.819 |  | 
Rap-F11 (VHH) VHH: QVQLQESGGGSVQPGGSLRLSCAASGFTYIPAYMGWFRQAPGKERERVASIKTDGSTTYADSVNGRFTIAQDTAKNTLYLQMDSLKPEDTAMYYCAAYQFGAFRVWGQGTQVTVSS |  | 2 |  | 1.58 | 
Wio-02-01 (R1-A12-GGGGS-Rap-A10) (bispecific antibody) QVQLQESGGGPVQAGGSLRLSCSASTTAYDNACMGWFRQAPGKEREGVASIHLRDRTYYADSVKGRFTLSRDGASKTLYLQMNSLKPEDSGTYYCASSNICNGLNLQGNTYWGQGTQVTVSSGGGGSQVQLQESGGGLVQAGGSLKLSCAASGYTYGPYCMGWFRQFPGKEREGVAAVGGDGRTWYGNSVKGRFTISQDNAKKTLYLQINALKPEDTAMYYCAADFDRTVCSDDIYDYTYRGQGTQVTVSS |  |  |  |  | SEAP reporter OD, supernatant 5X [7]: 2.13; SEAP reporter OD, supernatant 25X [7]: 1.92; EC50 [8]: 1.87 ng/mL; ELISA OD [9]: 2.14 and 2.26
Rap-C10 (VHH) VHH: QVQLQESGGGSVQPGGSLRLSCAASGFTYIPAYMGWFRQAPGKERERVASISSTDGSTTYADSVKGRFTVSQDTAKNTLYLQMNSLKPEDTAMYYCAAYQFGAFRVWGQGTQVTVSS |  | 1.85 |  | 1.58 | 
Rap-A10 (VHH) VHH: QVQLQESGGGLVQAGGSLKLSCAASGYTYGPYCMGWFRQFPGKEREGVAAVGGDGRTWYGNSVKGRFTISQDNAKKTLYLQINALKPEDTAMYYCAADFDRTVCSDDIYDYTYRGQGTQVTVSS |  | 1.83 |  | 1.57 | 
R1-A12 (VHH) VHH: QVQLQESGGGPVQAGGSLRLSCSASTTAYDNACMGWFRQAPGKEREGVASIHLRDRTYYADSVKGRFTLSRDGASKTLYLQMNSLKPEDSGTYYCASSNICNGLNLQGNTYWGQGTQVTVSS | 2.71 |  | 2.64 |  | 
